Assay results: publication PMC3936744 (Nucleic Acids Research, 2013)
Read-outs that look alike come from different tables or passages of the source.

T1: Dpo4 (Sulfolobus solfataricus P2 DNA polymerase IV) (Saccharolobus solfataricus, UniProt Q97W02)
T1 sequence (Q97W02 1-352): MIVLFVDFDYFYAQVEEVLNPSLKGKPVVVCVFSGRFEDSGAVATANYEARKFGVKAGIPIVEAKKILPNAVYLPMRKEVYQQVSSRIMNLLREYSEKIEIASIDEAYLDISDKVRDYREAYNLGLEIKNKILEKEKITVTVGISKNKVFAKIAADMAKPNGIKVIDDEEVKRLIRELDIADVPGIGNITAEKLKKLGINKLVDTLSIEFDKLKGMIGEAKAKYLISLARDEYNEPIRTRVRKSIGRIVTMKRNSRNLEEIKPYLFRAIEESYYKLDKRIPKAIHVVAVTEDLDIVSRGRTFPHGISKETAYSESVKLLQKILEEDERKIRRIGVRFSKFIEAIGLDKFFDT

T2: Dpo4 (P2 DNA polymerase IV), wild type, Cy5-labeled (Sulfolobus solfataricus P2, UniProt Q97W02 1-352)
T2 sequence: T1 sequence (Q97W02 1-352)

B1: 9Cy3 primer-template (dsDNA)
DNA 1: GATGAAAATGAAGG
DNA 2: CTCATAATAGCTATCCTTCATTTTCATC
modifications: amino-C6-dT in template
B2: 12Cy3 primer-template (dsDNA)
DNA 1: GATGAAAATGAAGGATA
DNA 2: CTCATAATAGCTATCCTTCATTTTCATC
modifications: amino-C6-dT in template
B3: 8Cy3 primer-template (dsDNA)
DNA 1: GATGAAAATGAAG
DNA 2: CTCATAATAGCTATCCTTCATTTTCATC
modifications: amino-C6-dT in template
B4: 11Cy3 primer-template (dsDNA)
DNA 1: GATGAAAATGAAGGAT
DNA 2: CTCATAATAGCTATCCTTCATTTTCATC
modifications: amino-C6-dT in template
B5: 10Cy3 primer-template (dsDNA)
DNA 1: GATGAAAATGAAGGA
DNA 2: CTCATAATAGCTATCCTTCATTTTCATC
modifications: amino-C6-dT in template
B6: 7Cy3 primer-template (dsDNA)
DNA 1: GATGAAAATGAA
DNA 2: CTCATAATAGCTATCCTTCATTTTCATC
modifications: amino-C6-dT in template

Experiments:
[1] = molecular target: T1, Dpo4 (Sulfolobus solfataricus P2 DNA polymerase IV); assay: smFRET histogram shift and dissociation rate of the Dpo4-DNA complex; assay type: binding; settings: 1 mM; incorrect nucleotide; 8Cy3 primer-template; Ca2+, pH 7.5, 21 °C
[2] = molecular target: T2, Dpo4 (P2 DNA polymerase IV), wild type, …; assay: smFRET
[3] = molecular target: T2, Dpo4 (P2 DNA polymerase IV), wild type, …; assay: smFRET; remark: listed apart in the source
[4] = molecular target: T2, Dpo4 (P2 DNA polymerase IV), wild type, …; assay: smFRET; remark: listed apart in the source

| Molecule | binding result [3] | also measured |
| --- | --- | --- |
| Nc1ccn([C@H]2C[C@H](O)[C@@H](COP(=O)(O)OP(=O)(O)OP(=O)(O)O)O2)c(=O)n1 [dCTP] | – | smFRET histogram shift and dissociation rate of the Dpo4-DNA complex [1]: both dCTP and dTTP induced a low FRET shift identical to that observed |
| B1 | – | binding result [2]: binds |
| B2 | binds | – |
| B3 | – | Kd [4]: 30 ± 10 nM |
| B4 | binds | – |
| B5 | binds | – |
| B6 | binds | – |
